From the supplement of paper PMC9170038

test system: MS2 coat protein; assay: apparent KD of MS2 coat protein; higher = weaker reporter binding; details: Eterna round: R107; input ligand: theophylline 2 mM
Procedure: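 RNA-MaP round R107: designed RNA switches with theophylline, tryptophan, arginine or FMN aptamers are transcribed on-chip within common flanks. They are titrated with SNAP-549-labelled MS2 coat protein in RNA-MaP buffer (100 mM Tris pH 7.5, 80 mM KCl, 4 mM MgCl2), without ligand or with the indicated ligand. Median apparent KD per design.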

Row | Sequence | apparent KD of MS2 coat protein
1 | AAGAACCAGACGGCCGCCACUGGCCAGACAGGGUUCAUGGAAACAUGAGGAUCACCCAUGUCUUCCAGGACCGGGUCUGAAGAGG [Esbiisin] | 9.33 nM
2 | UGUAUGUGAUCUGAUACCAGCGAUGAUAACCUGAGGAUCACCCUGGUAUGGCGAAAGCCUCGCCCUUGGCAGCAGAUCGCAUACU | 30.7 nM
3 | UGGCAAGAGGGAAGGAGCGUCAGCUGAGUCACAUGAGGAUCACCCAUGUCGCACAUAGUGUGACAGGUAGGUCGCCCUCUGCCGU [Vesosocera] | 207 nM
4 | GUUAUAGACGGAAGGAGCGCGGCCACAUGAGGAUCACCCAUGUAUUGUGUUGGUAAUAGGUCGCAGGUAGGUCGCCGAUUAAUGA [Same State - Arginine B / A] | 47.5 nM
5 | UCGCCCAGGUAGGCUUAAUGGGAUAUGGAAGGAGCGCUGAUGCCAGCAGGUAGGUCGCCAACGGACAUGAGGAUCACCCAUGUAC [Same State - Arginine A (Freestyle 4)] | 27.1 nM
6 | UUAAUCUUAUAUGAAAACAUAUAAGCAGAAGGAGCGUGAUAAAACACAGGUAGGUCGCUGAAGGGAACAUGAGGAUCACCCAUGU [AstrosSSArgA#4] | 30.6 nM
7 | UAUCCACAUGAGGAUCACCCAUGUAGGGAAGGAGCGGUGAUUUCACCAGGUAGGUCGCCUUACUGAGGAGAACCGGUGGAAUCGU [Exclusion - Arginine A (Freestyle 30)] | 75.9 nM
8 | AGCUCGCAUCCUCAAGCGUCAAAGACGCGUCGAGGACCGGUACGGCCGCCACUCGACAAGAGGAUCACCCUUGUCUAAGCGAGCA [TrypAX 4 #SwitchBubble #AlternativeMS2 #MS2Late #CuTurnoff] | 264 nM

same assay, conditions: Eterna round: R107; input ligand: tryptophan 2.4 mM

Row | Sequence | apparent KD of MS2 coat protein
9 | UGUUUUUAUCGAAGGAGCGCCGCAUGAGGAUCACCCAUGCACAUGAGGAUCACCCAUGUCUGGCAGGUAGGUCGCGAUCAAUGGG [Same State Arginine B GF 11] | 44.3 nM
10 | GCUGCCAUACGAAGGAGCGCUGUUGCAAUGAGGCGAACAUGAGGAUCACCCAUGUGGCAAAAGCAGGUAGGUCGCGUAUGGCAGC [EAB #17] | 20.2 nM
11 | AACAUGAGGAUCACCCAUGUUGUAAGGGAAGGAGCGCCUAAUCAGGCAGGUAGGUCGCCCAACAUGAGGAUCACCCAUGUUGUAU [Exclusion Arginine A 2] | 76.5 nM
12 | CAAAUAGACCACGAUACCAGAACACAAGGAGUAAUAUCAAACAUGAGGAUCACCCAUGUCUUCCCUUGGCAGCGUAGCACGGAGU [theeternabot_exclusion_MS2_Theo_B_23] | 11 nM
13 | CUCCCGUGGUCGGCCGCCACUGGAGGCCUCGCGCGACAUGAGGAUCACCCAUGUUGGCCCGGCCUCAGGACCGGGAUCGCGUGAG [#1 Same State - Tryptophan B Attempt #7 (HarryS)] | 10.9 nM
14 | UGACAUUGCUGCGAUACCAGACAUGAGGAUCACCCAUGUACCAAGGUACCCGAAAGGAAUGUCCCUUGGCAGCGCAGCAAUGUCU [MAT - Exclusion Theophlline B - Mod of Eli - D18] | 9.73 nM
15 | GAUGAACUAUUCGAUACCAGACCACAUGAGGAUCACCCAUGUGUGUUUCGUCCUUAGCCGGUCCCUUGGCAGCGAAUAGUUUAUC [#28 Exclusion-TheophyllineB] | 19.4 nM
16 | AUCCUUAAUAGGGUAAAUGGAUAAAGUGAUACCAGUCAAAUACAAGACCCUUGGCAGCACAAGGACAUGAGGAUCACCCAUGUCA [Same State Theophylline A GF21] | 21.6 nM
17 | AUCGUACCUGAGGAUACCAGCAUGUGAUCAUAACAUGAGGAUCACCCAUGUAAUCAGUGAUGCCCUUGGCAGCUUGAUCGGUACA [Same State - Theophylline B (Freestyle 11)] | 63.8 nM
18 | UUGUUGUUUGGAAGGAGCGUGGAUGAGUGUGGACAUGAGGAUCACCCAUGUUGGAUGAUACCGCAGGUAGGUCGCCGGGUGGUGG [11.aD] | 75.9 nM
19 | GAUGAACUAUAUGAUACCAGACAACAUGAGGAUCACCCAUGUGAAAGUCGUCCUCUGCCUGUCCCUUGGCAGCGUAUAGUUUAUC [XTheo B #14] | 28.4 nM
20 | GCUGCUUUGGGAAGGAGCGCUGCGGUAUUGUGGCGGACAUGAGGAUCACCCAUGUGCCUGCAGCAGGUAGGUCGCUUAGGGCAGC [EAP NP+V+V2 #17] | 58.4 nM
21 | CGCCUACAGGUGUACUAUUGUGGUGAAGAUACCAGAUAGCCCAAUAUCCCUUGGCAGCUUCAGACAUGAGGAUCACCCAUGUAUC [theeternabot_exclusion_MS2_Theo_A_30] | 15.5 nM
22 | AAUAUAUAGACGGCCGCCACUGGAAUUAAUACAUGAGGAUCACCCAUGUGAAGAGGAUAAUAACACAGGACCGGGUCUUCAUGUA [SS Tryp B Tesla 1.2] | 138 nM
23 | GUGUUUGUGUGAGAUACCAGUGAGGCCACAUGAGGAUCACCCAUGUCCCUCACUCCGGCCCACCCUUGGCAGCUCUUAUAGUAGU [Exclusion Theophylline B GF 23] | 9.83 nM
24 | AGAACAAAACUAAAUAAACAACUGGGUGAUACCAGCACAUGUGCGUGCCCUUGGCAGCAUCCGGCCACAUGAGGAUCACCCAUGU [Inarar] | 62.7 nM
25 | CCGCACAUGAGGAUCACCCAUGUCAGGGAUACCAGCCCAGACAUGGGCCCUUGGCAGCUUUGUAGCUGACGAAAGUCAGCAGCGG [Omei Theo A SS A v2] | 59.2 nM
26 | AAGAACCAGACGGCCGCCACUGGCCAGACAGGGUUCAUGGAAACAUGAGGAUCACCCAUGUCUUCCAGGACCGGGUCUGAAGAGG [Esbiisin] | 11.3 nM
27 | CGGUUUGUGAUGGAUACCAGCAGAGAAAAUGUUUAUCCUAACAUGAGGAUCACCCAUGUAUGCCCUUGGCAGCUGUUGUGGGCUG [8.V] | 52.5 nM
28 | UGUAUGUGAUCUGAUACCAGCGAUGAUAACCUGAGGAUCACCCUGGUAUGGCGAAAGCCUCGCCCUUGGCAGCAGAUCGCAUACU | 1210 nM
29 | UGGCAAGAGGGAAGGAGCGUCAGCUGAGUCACAUGAGGAUCACCCAUGUCGCACAUAGUGUGACAGGUAGGUCGCCCUCUGCCGU [Vesosocera] | 122 nM
30 | GUUAUAGACGGAAGGAGCGCGGCCACAUGAGGAUCACCCAUGUAUUGUGUUGGUAAUAGGUCGCAGGUAGGUCGCCGAUUAAUGA [Same State - Arginine B / A] | 34 nM
31 | UCCUCCUCCGCAAGGAGGAGGAGUUGCGAUACCAGCACGGUAACGUGCCCUUGGCAGCGCACAUGAGGAUCACCCAUGUCAUGUU [#1 Exclusion - Theophylline A Attempt #11 (HarryS)] | 17.1 nM
32 | UCGCCCAGGUAGGCUUAAUGGGAUAUGGAAGGAGCGCUGAUGCCAGCAGGUAGGUCGCCAACGGACAUGAGGAUCACCCAUGUAC [Same State - Arginine A (Freestyle 4)] | 22.7 nM
33 | UUAAUCUUAUAUGAAAACAUAUAAGCAGAAGGAGCGUGAUAAAACACAGGUAGGUCGCUGAAGGGAACAUGAGGAUCACCCAUGU [AstrosSSArgA#4] | 28.4 nM
34 | UAUCCACAUGAGGAUCACCCAUGUAGGGAAGGAGCGGUGAUUUCACCAGGUAGGUCGCCUUACUGAGGAGAACCGGUGGAAUCGU [Exclusion - Arginine A (Freestyle 30)] | 19.8 nM
35 | AGCUCGCAUCCUCAAGCGUCAAAGACGCGUCGAGGACCGGUACGGCCGCCACUCGACAAGAGGAUCACCCUUGUCUAAGCGAGCA [TrypAX 4 #SwitchBubble #AlternativeMS2 #MS2Late #CuTurnoff] | 254 nM
36 | UUGGUACGACAGCUCAUAUAAGCAUGUGAUACCAGACUGGAAACAGUCCCUUGGCAGCACUUUACAUGAGGAUCACCCAUGUCGG [EThA NP+V+V2 #3 +-Same Structure] | 212 nM
